Source: the RNAGym collection of RNA variant scans (doi:10.1093/molbev/msab373)

B1: Azoarcus group I ribozyme (parent)
chain: GUGCCUUGCGCCGGGAAACCACGCAAGGGAUGGUGUCAAAUUCGGCGAAACCUAAGCGCCCGCCCGGGCGUAUGGCAACGCCGAGCCAAGCUUCGGCGCCUGCGCCGAUGAAGGUGUAGAGACUAGACGGCACCCACCUAAGGCAAACGCUAUGGUGAAGGCAUAGUCCAGGGAGUGGCGAAAGUCACACAAACCGG

Variants of: B1
Assay: reverse-splicing fitness (ratio to wild type); higher = more active; in vitro selection; Mg2+ level not given
Procedure, shortened: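 An in vitro group I ribozyme library with randomized positions was T7-transcribed and gel-purified. In triplicate, 10 pmol RNA in EPPS pH 7.5 was reacted with 50 pmoles of a 30-nt RNA substrate for 1 h at 37 °C across several added MgCl2 levels (1–48 mM), then stopped with EDTA. Products were reverse transcribed from a substrate-complementary primer, PCR-amplified and sequenced (HiSeq 4000). Fitness is a variant's read proportion after selection over that before, normalised to wild type.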

Variant | reverse-splicing fitness
C82U A111U A120C C150A | 0.0106
C82U A111U A120C C150U | 0.0179
C82U A111U A120C C150G | 0.00758
C82U A111U A120G A145C C150U C169G U176A | 0.0216
C82U A111U A120G A145C C150U C169G U176G | 0.00484
C82U A111U A120G A145C C150U C169G U176C | 0.0111
C82U A111U A120C C150U C169G U176A | 0.0138
C82U A111U A120C C150U C169G U176G | 0.00509
C82U A111U A120C C150U C169G U176C | 0.0147
C82U A111U A120G | 0.0168
C82U A111U A120G A145C U176G | 0.00374
C82U A111U A120G A145C U176A | 0.00965
C82U A111U A120G A145C U176C | 0.00925
C82U A111U A120G A145C C150G U176G | 0.0024
C82U A111U A120G A145C C150G U176C | 0.00719
C82U A111U A120G A145C C150G U176A | 0.00493
C82U A111U A120C C169U | 0.0117
C82U A111U A120C C169A | 0.00717
C82U A111U A120C C169G | 0.00824
C82U A111U A120G A145G C150G C169G | 0.00719
C82U A111U A120G A145G C150G C169U | 0.0089

Variant | reverse-splicing fitness
C82U A111U A120G A145G C150G C169A | 0.00888
C82U A111U A120C C150U C169A | 0.00987
C82U A111U A120C C150U C169U | 0.0134
C82U A111U A120C C150U C169G | 0.00829
C82U A111U A120C U176G | 0.00482
C82U A111U A120C U176A | 0.0144
C82U A111U A120C U176C | 0.0191
C82U A111U A120G A145C C150U U176G | 0.00412
C82U A111U A120G A145C C150U U176A | 0.00859
C82U A111U A120G A145C C150U U176C | 0.00906
C82U A111U A120C C150A U176G | 0.0056
C82U A111U A120C C150A U176C | 0.0189
C82U A111U A120C C150A U176A | 0.0126
C82U A111U A120C C169U U176C | 0.0164
C82U A111U A120C C169U U176G | 0.00459
C82U A111U A120C C169U U176A | 0.0196
C82U A111U A120G A145C C150G C169G U176C | 0.0069
C82U A111U A120G A145C C150G C169G U176A | 0.00849
C82U A111U A120G A145C C150G C169G U176G | 0.00424
C82U A111U A120G A145G C150U C169A U176A | 0.0135
C82U A111U A120G A145C C150A C169G U176A | 0.0242

Variant | reverse-splicing fitness
C82U A111U A120G A145C C150A C169G U176C | 0.0136
C82U A111U A120G A145C C150A C169G U176G | 0.00478
C82U A111U A120G A145G C150A C169U U176C | 0.0157
C82U A111U A120G A145G C150A C169U U176G | 0.00536
C82U A111U A120G A145G C150A C169U U176A | 0.0205
C82U A111U A120G A145C C150A C169A | 0.00756
C82U A111U A120G A145C C150A C169U | 0.00623
C82U A111U A120G A145C C150A C169G | 0.00785
C82U A111U A120G A145G C150U | 0.0119
C82U A111U A120G A145G C150G | 0.00732
C82U A111U A120G A145G C150A | 0.00801
C82U A111U A120G A145G C150G C169U U176A | 0.012
C82U A111U A120G A145G C150G C169U U176G | 0.00647
C82U A111U A120G A145G C150G C169U U176C | 0.0112
C82U A111U A120C C150G U176C | 0.00725
C82U A111U A120C C150G U176A | 0.00451
C82U A111U A120C C150G U176G | 0.00352
C82U A111U A120G A145C C150A C169A U176A | 0.0108
C82U A111U A120G A145C C150A C169A U176G | 0.00517
C82U A111U A120G A145C C150A C169A U176C | 0.0062
C82U A111U A120G A145C C150G C169A | 0.00779

Variant | reverse-splicing fitness
C82U A111U A120G A145C C150G C169G | 0.0068
C82U A111U A120G A145C C150G C169U | 0.00686
C82U A111U A120C A145U U176A | 0.0127
C82U A111U A120C A145U U176C | 0.0165
C82U A111U A120C A145U U176G | 0.00445
C82U A111U A120G A145G C150A U176G | 0.00603
C82U A111U A120G A145G C150A U176A | 0.0093
C82U A111U A120G A145G C150A U176C | 0.0166
C82U A111U A120C C150G C169A U176A | 0.0105
C82U A111U A120C C150G C169A U176G | 0.00603
C82U A111U A120C C150G C169A U176C | 0.0101
C82U A111U A120G A145C C150G | 0.00668
C82U A111U A120G A145C C150A | 0.0064
C82U A111U A120G A145C C150U | 0.0086
C82U A111U A120C C150U C169A U176G | 0.00474
C82U A111U A120C C150U C169A U176C | 0.0129
C82U A111U A120C C150U C169A U176A | 0.015
C82U A111U A120C C150G C169G U176G | 0.00402
C82U A111U A120C C150G C169G U176C | 0.00458
C82U A111U A120C C150G C169G U176A | 0.00688
